These are literature values, as cited in paper PMC8878198.

In this data set the target is CXCL8 (Homo sapiens) (UniProt P10145).
Chain of CXCL8 (Homo sapiens) (P10145 28-99): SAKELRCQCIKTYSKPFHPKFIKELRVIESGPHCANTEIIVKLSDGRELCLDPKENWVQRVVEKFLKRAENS

Chain of CXCR2 (P25025 whole entry): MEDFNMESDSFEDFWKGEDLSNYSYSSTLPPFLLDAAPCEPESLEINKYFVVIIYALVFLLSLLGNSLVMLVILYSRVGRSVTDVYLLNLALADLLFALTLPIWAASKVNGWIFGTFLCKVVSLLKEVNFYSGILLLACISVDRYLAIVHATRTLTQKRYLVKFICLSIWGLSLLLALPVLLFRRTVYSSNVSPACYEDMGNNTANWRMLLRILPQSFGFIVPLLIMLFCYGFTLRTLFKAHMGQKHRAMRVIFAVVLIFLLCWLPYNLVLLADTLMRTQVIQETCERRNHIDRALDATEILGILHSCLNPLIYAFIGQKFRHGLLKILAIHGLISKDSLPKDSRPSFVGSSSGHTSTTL

Turning to CXCR2 (from UniProt P25025), the dissociation constant (Kd) is 0.7 nM.

The Kd is the concentration at which binding is half-saturated.
